Source: patent publication US20070173444A1 (AFFYMAX, published 2007)
Bridge positions count the residues as written; N and C are the ends. Square brackets hold non-standard residues; d marks the D form. Ends that are not written are not given here. Ahx = NCCCCCC(=O)O

T1: native IL-5R a/β complex on TF-1 cells (human, UniProt Q01344 21-420; P32927 17-897)
T1 sequence (looked up) 1: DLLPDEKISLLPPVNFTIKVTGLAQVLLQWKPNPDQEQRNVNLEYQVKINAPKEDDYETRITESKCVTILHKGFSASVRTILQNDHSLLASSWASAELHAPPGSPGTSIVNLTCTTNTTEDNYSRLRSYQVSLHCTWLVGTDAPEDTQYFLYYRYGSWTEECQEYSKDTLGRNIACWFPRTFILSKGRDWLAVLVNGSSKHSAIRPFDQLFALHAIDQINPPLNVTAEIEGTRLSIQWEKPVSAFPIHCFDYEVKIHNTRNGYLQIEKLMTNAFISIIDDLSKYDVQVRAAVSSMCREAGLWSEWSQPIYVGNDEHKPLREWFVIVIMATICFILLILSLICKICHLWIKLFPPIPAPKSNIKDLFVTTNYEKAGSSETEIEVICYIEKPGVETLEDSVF
T1 sequence (looked up) 2: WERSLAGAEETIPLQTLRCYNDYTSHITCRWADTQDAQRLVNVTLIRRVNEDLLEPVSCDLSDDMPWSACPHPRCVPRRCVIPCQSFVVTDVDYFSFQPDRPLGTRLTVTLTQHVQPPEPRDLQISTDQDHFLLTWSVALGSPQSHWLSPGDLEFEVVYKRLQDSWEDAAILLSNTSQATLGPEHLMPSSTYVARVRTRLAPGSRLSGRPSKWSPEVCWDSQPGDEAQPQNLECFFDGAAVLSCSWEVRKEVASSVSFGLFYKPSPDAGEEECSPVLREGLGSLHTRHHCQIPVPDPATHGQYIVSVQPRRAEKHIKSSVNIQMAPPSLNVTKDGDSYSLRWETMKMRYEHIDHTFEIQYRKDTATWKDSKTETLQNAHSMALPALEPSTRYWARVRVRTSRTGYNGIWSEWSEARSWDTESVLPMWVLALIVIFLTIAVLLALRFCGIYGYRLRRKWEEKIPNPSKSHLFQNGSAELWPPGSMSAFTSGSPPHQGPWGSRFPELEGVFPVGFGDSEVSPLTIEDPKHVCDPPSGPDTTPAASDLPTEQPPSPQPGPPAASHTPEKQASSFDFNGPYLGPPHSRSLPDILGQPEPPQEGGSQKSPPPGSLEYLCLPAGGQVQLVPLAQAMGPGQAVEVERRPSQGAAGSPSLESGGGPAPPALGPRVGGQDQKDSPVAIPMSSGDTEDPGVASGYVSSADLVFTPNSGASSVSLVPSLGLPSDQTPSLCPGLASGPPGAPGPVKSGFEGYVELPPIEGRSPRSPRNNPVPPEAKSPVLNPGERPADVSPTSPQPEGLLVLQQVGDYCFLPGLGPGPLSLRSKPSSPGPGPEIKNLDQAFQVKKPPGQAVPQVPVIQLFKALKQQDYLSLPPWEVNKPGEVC

T2: IL-5RaECD (the extracellular domain (ECD) of the human IL-5 receptor a chain) (human, UniProt Q01344 21-342, extensively glycosylated)
T2 construct: extracellular domain; also called IL-5RαECD; soluble IL-5Ra
T2 sequence (Q01344 21-342, looked up): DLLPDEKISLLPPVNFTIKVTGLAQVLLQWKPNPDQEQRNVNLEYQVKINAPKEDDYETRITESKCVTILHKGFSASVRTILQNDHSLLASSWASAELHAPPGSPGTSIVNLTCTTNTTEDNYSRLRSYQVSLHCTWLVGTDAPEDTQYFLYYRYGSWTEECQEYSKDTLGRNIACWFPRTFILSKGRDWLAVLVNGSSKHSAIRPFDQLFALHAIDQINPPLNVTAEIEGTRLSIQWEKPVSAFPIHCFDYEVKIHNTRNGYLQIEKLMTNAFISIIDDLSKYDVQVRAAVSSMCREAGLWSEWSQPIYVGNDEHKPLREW


Assays:
[1] = molecular target: T1, native IL-5R a/β complex on TF-1 cells; assay: cell-based or functional assay
[2] = molecular target: T2, IL-5RaECD (the extracellular domain …); assay: scintillation proximity competition assay, 20 pM [125I] IL-5, soluble IL-5Ra on beads; dimer of the printed monomer
Description: Binding affinities of synthetic peptides for IL-5Ra were measured in a scintillation proximity assay (SPA) using radio-iodinated IL-5. Streptavidin coated SPA beads (Amersham) were suspended in IL-5 binding buffer (phosphate buffered saline, 0.1% bovine serum albumin, 0.2% NaN3) at 2 mg beads/ml of buffer. Biotinylated mAb 179 was adsorbed onto the beads at a ratio of 2 ig Ab/mg beads by incubating the beads and antibody with agitation for at least 2 h. at 4. The beads were pelleted at 2500 rpm and resuspended at 2 mg/ml in binding buffer. Soluble IL-5Ra was then adsorbed onto the beads by diluting a solution of soluble receptor harvest 1:500 into the bead suspension and incubating with agitation for 2 hr at 4. The beads were again pelleted at 2500 rpm and resuspended at 2 mg/ml in binding buffer. Competition binding assays were carried out in 100p1 reactions in white polystyrene microtiter plates. These reactions contained 0.05 mg of receptor coated SPA beads, various concentrations of test peptide diluted in binding buffer, and 20 pM [₁₂₅I] IL-5 (Amersham). The plates were incubated at room temperature for 1 hour with agitation, then centrifuged for 5 min at 1500 rpm followed by scintillation counting on a Topcount instrument (Packard). Total binding was defined by the amount of [₁₂₅I] IL-5 bound in the absence of any competitor. Non-specific binding was defined by the amount of [₁₂₅I] IL-5 bound in the presence of 30 nM IL-5. Peptide binding data was analyzed to determine the peptide concentration required to reduce specific [₁₂₅I] IL-5 binding by 50% (IC₅₀). In each instance, the dimer has both intramolecular and intermolecular disulfide linkages as shown generically below: […]

[3] = molecular target: T2, IL-5RaECD (the extracellular domain …); assay: competition with [125I] IL-5 for binding to IL-5Ra ECD; peptide assayed immediately after dissolving
Description: (§1) Binding affinities of synthetic peptides for IL-5Ra were measured in a competition binding assay using radio-iodinated IL-5. Immulon 4 (Dynatech) microtiter wells were coated with streptavidin (Sigma) by incubating 100 ul of a 50 ug/ml solution in PBS for 30 min. at 37. The wells were blocked with 200 ul of 1% BSA in PBS for 15 min. at 37, followed by 100 III of biotinylated monoclonal antibody, designated mAb 179, at 5 u. g/ml in PBS. Soluble IL-5Ra was then immobilized in the wells by incubating 100 µl of a solution of soluble receptor harvest diluted 1: 5000 in PBS/0.1% BSA for 1 hr. at 4. After washing away unbound receptor, 50 ul of various concentrations of test peptide diluted in PBS/0.1% BSA were added to the wells, followed by 50 µl of a fixed concentration of [₁₂₅I] IL-5 (Amersham). The binding reactions were incubated at 4 C for 2 hr, then washed with PBS to remove unbound [₁₂₅I] IL-5. Bound [₁₂₅I] IL-5 was determined by gamma counting.
(§2) Total binding was defined by the amount of [₁₂₅I] IL-5 bound in the absence of any competitor. Non-specific binding was defined by the amount of [₁₂₅I] IL-5 bound in the presence of 30 nM IL-5. Peptide binding data was analyzed to determine the peptide concentration required to reduce specific [₁₂₅I]

[4] = molecular target: T2, IL-5RaECD (the extracellular domain …); assay: competition with [125I] IL-5 for binding to IL-5Ra ECD; peptide after 10 days (disulfide-linked dimer)
Description: as §1, §2

Binder	Microphysiometer pIC50 (block of TF-1 cell response to IL-5) [1]	SPA pIC50 [2]	other results
[Ahx]EGYVCVEWARCPTCR-NH2 (disulfide (positions not given here); also: dimer, intramolecular and intermolecular disulfides, places not given here) [dimer of (Ahx)-EGYVCVEWARCPTCR-(NH2)]	9 negative log of the molar IC50		
Ac-EGYVCVEWAACPTCR-NH2 (disulfide (positions not given here); also: dimer, intramolecular and intermolecular disulfides, places not given here) [dimer of (Ac)-EGYVCVEWAACPTCR-(NH2)]	6.9 negative log of the molar IC50		
H-EGYVCVEWARCPTCK-OH (disulfide (positions not given here); also: dimer, intramolecular and intermolecular disulfide linkages, places not given here) [dimer of (H)-EGYVCVEWARCPTCK-(OH)]	9.2 negative log of the molar IC50	8.7 negative log of the molar IC50	
H-EGYVCVEWARCPTCR-OH (disulfide (positions not given here); also: dimer, intramolecular and intermolecular disulfide linkages, places not given here) [dimer of (H)-EGYVCVEWARCPTCR-(OH)]	9.6 negative log of the molar IC50	8.4 negative log of the molar IC50	
H-GYVCVEWARCPTCR-OH (disulfide (positions not given here); also: dimer, intramolecular and intermolecular disulfide linkages, places not given here) [dimer of (H)-GYVCVEWARCPTCR-(OH)]	8.4 negative log of the molar IC50	8.2 negative log of the molar IC50	
H-EGYVCVEWARCPTCR-NH2 (disulfide (positions not given here); also: dimer, intramolecular and intermolecular disulfide linkages, places not given here) [dimer of (H)-EGYVCVEWARCPTCR-(NH2)]	9.1 negative log of the molar IC50	8.1 negative log of the molar IC50	
H-EGYVCVEWARCPTCG-NH2 (disulfide (positions not given here); also: dimer, intramolecular and intermolecular disulfide linkages, places not given here) [dimer of (H)-EGYVCVEWARCPTCG-(NH2)]	9.1 negative log of the molar IC50		
Ac-EGYVCVEWARCPTCR-NH2 (disulfide (positions not given here); also: dimer, intramolecular and intermolecular disulfides, places not given here) [dimer of (Ac)-EGYVCVEWARCPTCR-(NH2)]	9.1 negative log of the molar IC50		
Ac-EGYVCVEWARCPTCK-NH2 (disulfide (positions not given here); also: dimer, intramolecular and intermolecular disulfides, places not given here) [dimer of (Ac)-EGYVCVEWARCPTCK-(NH2)]	8.4 negative log of the molar IC50		
TGGGDGYVCVEWARCPTCK (three Cys in free sulfhydryl form, T0005 prints 32-50) [AF17362 (three cysteine residues in the free sulfhydryl form)]			IC50 [3]: 120 nM
H-EGYVCVEFARCPTCR-OH (disulfide (positions not given here); also: dimer, intramolecular and intermolecular disulfides, places not given here) [dimer of (H)-EGYVCVEFARCPTCR-(OH)]		6.8 negative log of the molar IC50	
H-EGYVCVEFARCPTCR-NH2 (disulfide (positions not given here); also: dimer, intramolecular and intermolecular disulfides, places not given here) [dimer of (H)-EGYVCVEFARCPTCR-(NH2)]		6.4 negative log of the molar IC50	
H-GYVCVEFARCPTCG-NH2 (disulfide (positions not given here); also: dimer, intramolecular and intermolecular disulfide linkages, places not given here) [dimer of (H)-GYVCVEFARCPTCG-(NH2)]		6.1 negative log of the molar IC50	
H-EGYVCVEFARCPTCG-NH2 (disulfide (positions not given here); also: dimer, intramolecular and intermolecular disulfides, places not given here) [dimer of (H)-EGYVCVEFARCPTCG-(NH2)]		6.6 negative log of the molar IC50	
TGGGDGYVCVEWARCPTCK (disulfide 15-18; also: dimer, interchain disulfide between Cys9 of each chain, Formed by air oxidation in 50 mM Tris pH 7.8; said to be indistinguishable from AF18748; also called AF17362 after 10 days at room temperature; spontaneously formed disulfide-linked dimer) [dimeric form of AF17362]			IC50 [4]: 0.55 nM
